{
  "source": "patent US20080044422A1",
  "about": "(Janssen / Centocor, published 2008)",
  "proteins": {"B1": {"name": "truncated CNGH0010.2 protein containing exons 1-5, 8, 9, 12, and 13 (other)", "chain": "GPLQSGEESTGTNIGEALGHGLGDALSEGVGKAIGKEAGGAAGSKVSEALGQGTREAVGTGVRQVPGFGAADALGNRVGEAAHALGNTGHEIGRQAEDVIRHGADAVRGSWQGVPGHNGAWETSGGHGIFGSQGGLGGQGQGNPGGLGTPWVHGYPGNSAGSFGMNPQGAPWGQGGNGGPPNFGTNTQGAVAQPGYGSVRASNQNEGCTNPPPSGSGGGSSNSGGGSGSQSGSSGSGSNGDNNNGSSSGGSSSGSSSGGSSGGSSGGSSGNSGGSRGDSGSESSWGSSTGSSSGNHGGSGGGDGHKPGCEKPGNEARGSGESGIQGQGSSWGSGGGDAVGGVNTVNSETS", "modifications": "O-linked oligosaccharides (sites not given)", "notes": "The signal peptide (probably residues 1-21, same exon 1) is cleaved in the secreted protein; also called CNGH0010 (exons 1-13); His tagged CNGH0010.2 fusion protein; not shown: C-terminal hexa-His (myc-His vector) tag"}},
  "molecular_target": "the molecule itself",
  "test": "SELDI mass spectrometry of the purified protein alone, non-reduced sample (self-association)",
  "procedure": "Recombinantly expressed proteins were analyzed by SDS-PAGE, anti-myc western blot, MALDI-MS, and SEC HPLC. In addition, O-linked glycosylation was analyzed by first treating the proteins with O-glycosidase with and without sialidase. The released O-glycans were labeled with anthranilic acid and analyzed by HPLC. The truncated CNGH0010.2 protein containing exons 1-5, 8, 9, 12, and 13 (SEQ ID NO:41) is predicted to be 37.5 kDa. […] In addition, it appears as if the molecule has a propensity to multimerize, as non-reduced analysis by SDS-PAGE, SELDI-MS (FIG. 5), and SEC-HPLC (FIG. 6), all indicate that dimeric and trimeric forms of the truncated CNGH0010.2 molecule exist in solution.",
  "data": [
    {"protein": "B1", "values": [
      {"measurement": "binding result", "value": "binds"}
    ]}
  ]
}
